{"source": "paper PMC5340868", "about": "(mBio, 2017)", "binders": {"B1": {"name": "randomized control DNA (Negative+/-) (dsDNA)", "DNA 1": "AGCCTTGCAGGCTAATCGGTAGCTA", "DNA 2": "TAGCTACCGATTAGCCTGCAAGGCT"}, "B2": {"name": "recombinant Rv3167c (rRv3167c), N-terminal 6-histidine tag (natural protein)", "chain": "MKADLPSLDKAPGAGRPRDPRIDSAILSATAELLVQIGYSNLSLAAVAERAGTTKSALYRRWSSKAELVHEAAFPAAPTALQAAAGDIAADIRMMIAATRDVFTTPVVRAALPGLVADMTADAELNARVLARFADLFAAVRMRLREAVDRGEAHPDVDPDRLIELIGGATMLRMLLYPDDMLDDAWVDQTTAIVVRGVHRAAPGGSVV", "notes": "also called purified Rv3167c"}, "B3": {"name": "palRv3167c (dsDNA)", "DNA 1": "TAACGCTACCTAAAGTAGCGTAA", "DNA 2": "TTACGCTACTTTAGGTAGCGTTA"}}, "key": {"[1]": {"target": "T1, rRv3167c (TetR-like regulator) (Mycobacterium tuberculosis, UniProt O53317 1-208)", "T1 sequence": "B2 chain", "experiment": "EMSA; 30 uM protein, 200 nM DNA, 5 mM MgCl2; ITC: 10 mM phosphate pH 7.2, 136 mM NaCl, 4 mM KCl, 25 C ([…]", "conditions": "protein: recombinant; tags: N-terminal 6xHis (pET28c, NdeI/BamHI); chain copies: 2; blunt"}, "SEC": {"target": "the molecule itself", "experiment": "SEC"}, "[2]": {"target": "T1, rRv3167c (TetR-like regulator)", "experiment": "ITC; ITC: 10 mM phosphate pH 7.2, 136 mM NaCl, 4 mM KCl, 25 C ([…]", "conditions": "protein: recombinant; tags: N-terminal 6xHis (pET28c, NdeI/BamHI); chain copies: 2; blunt"}}}
{"binder": "B1", "values": [{"measurement": "binding result", "setting": "[1]", "result": "no binding"}]}
{"binder": "B2", "values": [{"measurement": "stoichiometry N", "setting": "SEC", "result": 2}]}
{"binder": "B3", "values": [{"measurement": "Kd", "setting": "[2]", "result": "12.3 ± 3.2", "unit": "µM"}]}
